“Also recorded” adds a separate entry of the source.
T1: SLC2A3 pseudotyped VLPs (Homo sapiens, UniProt P11169)
T1 sequence (P11169 1-496): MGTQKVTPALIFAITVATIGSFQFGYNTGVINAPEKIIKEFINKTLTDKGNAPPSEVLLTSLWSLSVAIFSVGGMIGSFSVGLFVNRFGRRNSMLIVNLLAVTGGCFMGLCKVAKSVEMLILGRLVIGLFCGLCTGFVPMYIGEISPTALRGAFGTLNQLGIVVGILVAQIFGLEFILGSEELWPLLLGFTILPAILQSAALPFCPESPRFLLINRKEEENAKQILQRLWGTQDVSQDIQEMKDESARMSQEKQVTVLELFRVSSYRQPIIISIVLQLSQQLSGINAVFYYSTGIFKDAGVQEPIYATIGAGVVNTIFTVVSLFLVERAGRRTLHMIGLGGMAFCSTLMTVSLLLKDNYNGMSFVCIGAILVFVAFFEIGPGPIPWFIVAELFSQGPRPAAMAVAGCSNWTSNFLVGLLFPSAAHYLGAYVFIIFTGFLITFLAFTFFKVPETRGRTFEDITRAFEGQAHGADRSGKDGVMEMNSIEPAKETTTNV

T2: SLC2A4 pseudotyped VLPs (Homo sapiens, UniProt P14672)
T2 sequence (P14672 1-509): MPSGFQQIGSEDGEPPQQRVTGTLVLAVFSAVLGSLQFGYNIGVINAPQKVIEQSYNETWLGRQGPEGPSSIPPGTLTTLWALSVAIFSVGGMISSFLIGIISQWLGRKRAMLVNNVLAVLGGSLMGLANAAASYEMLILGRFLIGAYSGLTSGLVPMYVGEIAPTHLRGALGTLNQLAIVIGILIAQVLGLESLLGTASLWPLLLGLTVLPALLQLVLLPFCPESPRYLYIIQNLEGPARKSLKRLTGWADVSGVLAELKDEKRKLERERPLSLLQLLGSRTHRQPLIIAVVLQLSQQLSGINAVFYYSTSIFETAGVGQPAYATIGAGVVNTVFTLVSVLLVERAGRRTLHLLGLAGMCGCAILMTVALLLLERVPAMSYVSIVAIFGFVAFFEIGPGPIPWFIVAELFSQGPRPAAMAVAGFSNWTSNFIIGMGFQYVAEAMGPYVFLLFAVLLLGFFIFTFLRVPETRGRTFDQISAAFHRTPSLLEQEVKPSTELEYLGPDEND

T3: HEK-293-ALL cells transfected with human SLC2A1 (Homo sapiens, UniProt P11166)
T3 construct: expressed in transfected cells; host or cells: HEK-293-ALL
T3 sequence (P11166 1-492): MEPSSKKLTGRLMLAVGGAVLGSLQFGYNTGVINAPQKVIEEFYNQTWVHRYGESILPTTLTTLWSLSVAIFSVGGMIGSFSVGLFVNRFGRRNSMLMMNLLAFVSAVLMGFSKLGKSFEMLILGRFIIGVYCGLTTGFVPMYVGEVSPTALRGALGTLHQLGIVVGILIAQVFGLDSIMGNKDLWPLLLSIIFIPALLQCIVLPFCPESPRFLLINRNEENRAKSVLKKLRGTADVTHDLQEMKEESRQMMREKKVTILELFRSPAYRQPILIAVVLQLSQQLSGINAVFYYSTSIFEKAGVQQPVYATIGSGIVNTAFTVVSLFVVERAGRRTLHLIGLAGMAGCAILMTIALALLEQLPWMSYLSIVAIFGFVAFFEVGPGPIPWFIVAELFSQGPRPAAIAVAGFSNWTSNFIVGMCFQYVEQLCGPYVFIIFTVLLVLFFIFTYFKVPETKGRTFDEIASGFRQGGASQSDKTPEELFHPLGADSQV

T4: SLC2A1 pseudotyped VLPs (UniProt P11166 1-492)
T4 chain: T3 sequence (P11166 1-492)

T5: SLC2A3 pseudotyped VLPs (UniProt P11169 1-496)
T5 construct: also called SLC2A3 VLPs; GLUT3
T5 sequence: T1 sequence (P11169 1-496)

B1: 6F12 #33 (antibody, V domains shown)
VH: AVTLDESGGGLQTPGGALSLVCKASGFTFSDHAIFWVRQAPDKGLEFVAAISSGTGSWTAYATVVKGRATISRDNGQSTVRLQLNNLRAADTATYYCAKGAGSACCYAGSIDAWGHGTEVIVSS
VL: ALTQPSSVSANPGETVKITCSGGSSSSYYGWYQQKSPGSAPVTLIYYNDKRPSDIPSRFSGSKSGSTATLTITGVQVEDEAVYYCGTGDGSFAIFGAGTTLTVL
B2: 2E5 #22 (antibody, V domains shown)
VH: AVTLDESGGGLQTPGGALSLVCKASGFTFSTKGMGWVRQTPGKGLEWVAGISSMRRYTYYAPAVKGRATISRDNGQSTVRLQLSSLRAEDSGTYYCARDATYCSWTTSTCGWSGGTIDAWGHGTEVIVSS
VL: ALTQPSSVSANLGGTVKITCSGGSGNYGWYQQKSPGSVPVTVIYSNDKRPSDIPSRFSGSGSGSTATLTITGVQVEDEAVYFCGSRDSSYVGLFGAGTTLTVL

Assays:
SLC2A3 pseudotyped VLPs [1] = molecular target: T1, SLC2A3 pseudotyped VLPs; experiment: ELISA-based VLP binding assay, SLC2A3; details: compared to MOCK VLPs, FIG. 3
Method: (§1) An ELISA-based VLP binding assay was carried out to compare the EC50 values of antibody clones (FIG. 1). Similarly, ELISA based VLP binding assay was performed to compare the binding of the antibodies to different glucose transporters (FIG. 3). MaxiSorp™ high-capacity binding ELISA plate (Thermo Fisher Scientific, US) were coated with 5 μg/mL SLC2A1, SLC2A2, SLC2A3, SLC2A4 pseudotyped VLPs or MOCK VLPs in PBS overnight. The plate was washed and blocked for 1 h with 0.05% Tween 20, 2% BSA in PBS. Serial dilutions of antibodies were incubated on a washed plate for 1 hour, followed by a 1-hour incubation with goat anti-human IgG horse radish peroxidase (HRP) conjugated (Invitrogen) antibody. TMB (3,3′,5,5′-Tetramethylbenzidine) Solution VII (Biopanda Diagnostics) was used as a substrate for HRP and 0.5 M H2SO4 was used as stop solution. After every step, the wells were washed with 0.05% Tween 20, 0.1% Proclin 300 PBS solution. Absorption at 450 nm was measured with Thermo Scientific™ Multiskan™ FC Microplate Photometer. Exemplary wise used antibodies 1G2 #9, 2A2 #12, 2E5 #22, 5G5 #30, 6F12 #33, 7C3 #39 all bound SLC2A1 VLPs with low nanomolar EC50 values (FIG. 1).

SLC2A4 pseudotyped VLPs = molecular target: T2, SLC2A4 pseudotyped VLPs; experiment: ELISA-based VLP binding assay, SLC2A4; details: compared to MOCK VLPs, FIG. 3
Method: as §1

[2] = molecular target: T3, HEK-293-ALL cells transfected with human SLC2A1; experiment: 2-Deoxyglucose uptake assay (Glucose Uptake-Glo); format: cell-based; details: 2-hour incubation, 0.35 nM to 6.89 μM, 1 mM 2DG for 20 min, FIG. 4
Method: To evaluate if the described anti-SLC2A1 antibodies inhibit glucose uptake, a commercial Glucose Uptake-Glo Assay kit (Promega) was utilized according to manufacturer's instructions. In short, HEK-293-ALL cells were transfected with human SLC2A1 expression plasmid and were incubated at 37° C. overnight in the presence of 5% CO2. Cells were washed with 0.5% BSA PBS twice and 7000 cells were plated per well into white clear bottom 96-well plates in 0.5% BSA PBS in the presence of 0.35 nM to 6.89 μM anti-SLC2A1 antibodies or glucose uptake inhibitor BAY-876 (CaymanChem). Cells were incubated for 2 hours at room temperature. Glucose uptake was initiated by the addition of 1 mM 2-deoxyglucose (2DG) and was allowed to proceed for 20 min at 37° C. in the presence of 5% CO2. After adding STOP and neutralization reagents included in the kit, luminescence was measured using GloMax Explorer microplate reader (Promega). Nonspecific luminescence was measured in lysates from cells without (2DG) being added. Data was normalized to nonspecific luminescence and to the average value of luminescence in the presence of no inhibitors.

SLC2A1 pseudotyped VLPs = molecular target: T4, SLC2A1 pseudotyped VLPs; experiment: ELISA
SLC2A3 pseudotyped VLPs [3] = molecular target: T5, SLC2A3 pseudotyped VLPs; experiment: ELISA on VLPs coated at 5 ug/mL, compared with MOCK VLPs

Molecule | binding to SLC2A3 VLPs (SLC2A3 pseudotyped VLPs [1]) | binding to SLC2A4 VLPs (SLC2A4 pseudotyped VLPs) | glucose (2-deoxyglucose) uptake [2] | EC50 (SLC2A1 pseudotyped VLPs) [nM] | binding result (SLC2A3 pseudotyped VLPs [3])
B1 | did not bind | did not bind | strong concentration dependent decrease | 0.6 | no binding
B2 | did not bind; also recorded: Some binding | did not bind; also recorded: Some binding | strong concentration dependent decrease | 0.5 | no binding
